Laboratory results taken from the DeepSol protein solubility set.

Assay: soluble on expression in E. coli; label from the status in PepcDB or PDB records
With “MPNDLPFDLRPSRRTVTMGLAAGVAAALLPWRAQALDTGTARALVVEAVAQVNRTINSGKSEGQMYADFERLFARYADVPAIARTALGVAARSASRQEISAFTQAYQGYIARKYGKRFREFIGSEIKVNDARPMKSAVEVISTAYLRNENPFEVRWHVSDRSGRPAFFNIIIEGVNMLASERAEVGALLDRNRGSIPALTEQLRRASLEHHHHHH” the “soluble on expression in E. coli” value was “not soluble”.
With “MGSDKIHHHHHHMWLKAKKDAEAGAVSFSNQNGKFAEVSSVNTEEFSFRIYQVFGGGHVELSYDTVTTAVSVIYWFTASDVLETGITVVHTKPDNAAPELPGSYHFRPPFGWMNDPNGFGRFEGRPHLFYQHYSHGLRWNTMHWGHAVSSDYLRWRHLPIFLFPSEDLTTRPDKRGGAYSGSTIPLVEGSGIRVFFTEQVQDRIPEQQIQLTATSSDLIMAGQADVILAHRPDGQGLTPDFRDPYVFRGPDGLWKMLLGSQSDGGGVILLYETLDPTAASGWTYVGKLWVETRYKTTAIECPCLLPLDGPANARSTRWVLIYGLMHSEDPETGRKNLTMADVGWFDGKVFTKEFGQELDFGTDNYAFQAFLDGDSIIGIGWLANWADANPEIDFPTSMTLPRRIHYANGELLTPPIGAAESLRSHILDRTRLAAGERVTFINGAVEILIELASSDAAFELALDHPTVTLGLVSDETGLWIRHEDGRDGASPHYIAKGARASRIRIFLDYGSIEVFANRGRYVGTKRIEGFEPVRSALLRADPGAVVHATSWALKP” the “soluble on expression in E. coli” value was “not soluble”.
With “MGHHHHHHSHMSSILPFTPPIVKRLLGWKKGEQNGQEEKWCEKAVKSLVKKLKKTGQLDELEKAITTQNVNTKCITIPRSLDGRLQVSHRKGLPHVIYCRLWRWPDLHSHHELRAMELCEFAFNMKKDEVCVNPYHYQRVETPVLPPVLVPRHTEIPAEFPPLDDYSHSIPENTNFPAGIEPQSNIPETPPPGYLSEDGETSDHQMNHSMDAGSPNLSPNPMSPAHNNLDLQPVTYCEPAFWCSISYYELNQRVGETFHASQPSMTVDGFTDPSNSERFCLGLLSNVNRNAAVELTRRHIGRGVRLYYIGGEVFAECLSDSAIFVQSPNCNQRYGWHPATVCKIPPGCNLKIFNNQEFAALLAQSVNQGFEAVYQLTRMCTIRMSFVKGWGAEYRRQTVTSTPCWIELHLNGPLQWLDKVLTQMGSPSIRCSSVS” the “soluble on expression in E. coli” value was “soluble”.
For “GPGSMNIQGMALHGHMKPVTMIKFNREGDLLFSTAKEPNVSVWYTKTGERLGTYDGHSAISACDVNNYSTLLVTGGMDFKAKLWCVETGEELANIMLRTPARAVGFSHDDNLLMVSTSRKMGQKSAVQLYNLPFLPPKDGYSIHPVNTVFNPCTEFVSENDDVTFAIWGPTNDTIYYSTSDGSVAILDVETMSTVCTHKPHEETINRISFDSNYYTLITASKDKTARLLDSRDLSVVQTYTSDVPVNDASISPRGDHVIIGGGMDAQDVTTQGGQTTFEVKFYHKVHEKQLGQVRCHFGTINSVCFFPDGRGFASGAFDGLVKLHRFDDKYSSTPGAIPLWTPEGI”, the “soluble on expression in E. coli” value was “not soluble”.
In the case of “MTAAPYNYSYIFKYIIIGDMGVGKSCLLHQFTEKKFMADCPHTIGVEFGTRIIEVSGQKIKLQIWDTAGQERFRAVTRSYYRGAAGALMVYDITRRSTYNHLSSWLADAKSLTNPNTAIFLIGNKADLEDQRDVPYEEAKAFAEENGLTFLECSAKTGSNVEDAFLETAKQIYQNIQDGSLDLNAADTGVQPKQNLPRAAENNGKKDCNC”, the “soluble on expression in E. coli” value is reported as “not soluble”.
In the case of “MSEWASEDINAPSLLTGNPALQPQTGGILNIPANHQRIFTLFFTCRSQTNGDVVDQYAVEDRQQRLESRLLALKPSAQRNKQMCGECLGGVILTALFDPRSQAM”, the “soluble on expression in E. coli” value is reported as “not soluble”.
In the case of “MGSDKIHHHHHHVIEVIRQRVLPHYGLEGNAAKVSPLGNGHINDTFLVTWDEGSMVLQRLNTSVFQAPWTLVENAELISRHLGEKEGKDYELKVVSPKTTAEGDLGIDLGEAGFWRAIRYLKHSNSIDVVGSEAQAEQAARAFGHFARALCDFDATRIGDVIPKFHFLPGRLAALEQAAADNKAGRLDTCREWVDFALCQRGLLDELAALEPKLPLRVCHNDTKINNMLFDKRDDSAMAIIDLDTCMKGHLMYDFGDMVRTFTSPEAEDSTALDKVRVRPEIFAAICRGYLAELGDVLEAAERESLWLGARIMCLMIGVRFLTDYLNGDLYFHVHREGHNLDRAANQFTLYQSLLTQADRLKPCIF”, the “soluble on expression in E. coli” value is reported as “not soluble”.
In the case of “MGSDKIHHHHHHMQPTIDQKKNPAIGNQRVTKRRKTIAQGLIQEGIELEIIQSWLFAIAQMWEVGHIPPILRGISHKSQVEALFRISQIGETIQKVHEKLAGEYYQDWVKSLNRAGLHTPSEIISAITEIQQVVKPEAIDTTKQLLNKLELEIIGMKDGDFFPTPKPLCQRLVQLADIKPNWQILEPSAGSGNIAEYITNTYPNVQLEVVEINYDLRQILELKGFNLVGKNFLEFNPSHLYNACIMNPPFCELVQHIYQAWKLLITGGVLVSVIPESVFFNRKYKTFKNWLLANNSYVEMVDKDAFLSSNNPTNVATRIIKLIKP”, the “soluble on expression in E. coli” value is reported as “not soluble”.
For “MYFSWLFLVFFSSRSLTGTPRSIDQRQLRAELSGTGTPTAPADSPALVPNCTQTRGGEDGEGCKQPRVDIKKFRKKKGAHKPQEPETLNFKFRQNLLSLKFLKERKELLVSII”, the “soluble on expression in E. coli” value was “not soluble”.
With “MTKITVLSGKGGTGKTTVSVNMAKALSESYRVQLLDADVEEPNDHIFFNVDVSFEEPVHLMIPVVDNSVCIRCGECASTCQFGAISVFPSGTFVFESLCHGCGACSIMCPVNAISERPKEIGKIRFGTADGNISFGMGILNIGERTGVPVIRKLKKHIDEKADVVIVDAPPGTSCPVVESLRNTDFALLVTEPTAFGLHDLKLAVELTKEMGIPSGIVVNRYIPGNTIIEEFADEEGIPVLLKIPFKREIASLCAEGKLIVEAFQDMKKDFLELFEKIEVMVRLEHHHHHH” the “soluble on expression in E. coli” value was “soluble”.
With “MTEHSLWRFSRALHRALNDRQTEELATIIDDNIDWAIYGPIDMFPFFGARQGKAAVLEVCRQIADSVRIYRYHRESVMLGIDSAASMVRYSLTAAGTNRPISVRMALFTQFQNGRLTNLRMVLDTFDLVEQALGRPIHLPKIA” the “soluble on expression in E. coli” value was “soluble”.
With “MGSDKIHHHHHHENEYITNIDRTFGTRISYEISKRYGELGLEGSRSITIGLKGHAGQSFCAFLAKGVSVTLEGDANDYVGKCLSGGKIVIFPPKAASYKSEENSVIGNVALYGATSGDCWFRGVAGERFAVRNSGANVIVEAVGDHGCEYMTGGRVIVLGSIGRNFAAAMSGGIAYLFAQEDNFSRLINAATVDLDDASTEDLIFVKAK” the “soluble on expression in E. coli” value was “not soluble”.
For “MAHHHHHHMLQSPKGINILITGTPGTGKTSLAELLAQELGDFKHVEVGKIVKENHFYSEYDNALDTHIVEEDDEDRLLDFMEPMMVNEGNHVVDYHSSELFPRRWFHLVIVLRASTEVLFERLTARRYSEQKRDENMEAEIQGLCEEEARGAYDDSIVIVRENNTLEEMAATVDLIRLRVESLRGNAA”, the “soluble on expression in E. coli” value was “not soluble”.
For “MVLADLGRKIRNAIGKLGQSTVINEGELDLMLKEVCTALIESDVHIRLVKQLKDNVKKAINFEEIVGGANKRRYIQKTVFNELLKLVDPGVTPFTPTKGRRNVFMFVGLQGSGKTTTCTKMAYYYQRKGWKTCLICADTFRAGAFDQLKQNATKARIPFYGSYSEIDPVKIAAEGVEKFTQEGFEIIIVDTSGRHKQEASLFEEMLQVSNAVTPDNVVFVMDASIGQACEAQARAFSQTVDVASVIITKLDSHAKGGGALSAVAVTKSPVIFIGTGEHIDDFEIFKPKSFVQKLLGMGDIAGLVDMVNDIGIQDNKELVGRLKQGQFTLRDMYEQFQNIMKMGPFSQIMGMIPGFGSEFMTKGNEQESVNRLKRMMTVMDSMSDKELDHPKASELFTKEPNRVARVARGSGSHQQEVRDLLAQYKKFSDVVKKIGSIKGLFNGKNGDINPKNMNPAKMAQLNQQMAKMMDPRVLQQMGGMGGLQNMMQQMARAGKM”, the “soluble on expression in E. coli” value was “not soluble”.
